Four molecules from patent US20200316121A1 (published 2020) can be followed below.

Holding throughout (experiment): activation reporter or marker
Test [1] has as its target T1, p53 R248W peptide on HLA-A*68:01 (human).
T1 peptide: SSCMGGMNWR

Test [2] deals with T2, p53 Y220C peptide on HLA-DRB1*04:01:01 (human).
T2 peptide: RNTFRHSVVVPCE

Test [3] concerns the target T3, p53 wild type (Y220) peptide on HLA-DRB1*04:01:01 (human).
T3 peptide: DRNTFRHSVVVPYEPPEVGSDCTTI

B1: 4266-TCR2 (TCR, V domains shown)
Valpha: GQNIDQPTEMTATEGAIVQINCTYQTSGFNGLFWYQQHAGEAPTFLSYNVLDGLEEKGRFSSFLSRSKGYSYLLLKELQMKDSASYLCAVYTGGFKTIFGAGTRLFVKA
Vbeta: EAGVAQSPRYKIIEKRQSVAFWCNPISGHATLYWYQQILGQGPKLLIQFQNNGVVDDSQLPKDRFSAERLKGVDSTLKIQPAKLEDSAVYLCASNLGGGSTDTQYFGPGTRLTVL
Take B1: in test [1], the binding result is “recognises”.

B2: 4266-TCR4 (TCR, V domains shown)
Valpha: GQNIDQPTEMTATEGAIVQINCTYQTSGFNGLFWYQQHAGEAPTFLSYNVLDGLEEKGRFSSFLSRSKGYSYLLLKELQMKDSASYLCAVYPGGSQGNLIFGKGTKLSVKP
Vbeta: EAGVAQSPRYKIIEKRQSVAFWCNPISGHATLYWYQQILGQGPKLLIQFQNNGVVDDSQLPKDRFSAERLKGVDSTLKIQPAKLEDSAVYLCASSLGTGSTDTQYFGPGTRLTVL
With B2, in test [1], the binding result is “recognises”.

B3: 4266-TCR3 (TCR, V domains shown)
Valpha: GQNIDQPTEMTATEGAIVQINCTYQTSGFNGLFWYQQHAGEAPTFLSYNVLDGLEEKGRFSSFLSRSKGYSYLLLKELQMKDSASYLCAFYYGGSQGNLIFGKGTKLSVKP
Vbeta: GAGVSQSPRYKVAKRGQDVALRCDPISGHVSLFWYQQALGQGPEFLTYFQNEAQLDKSGLPSDRFFAERPEGSVSTLKIQRTQQEDSAVYLCASSFGSGSTDTQYFGPGTRLTVL
For B3, the binding result in test [1] is reported as “recognises”.

B4: 4259-F6-TCR (TCR, V domains shown)
Valpha: QKEVEQNSGPLSVPEGAIASLNCTYSDRGSQSFFWYRQYSGKSPELIMFIYSNGDKEDGRFTAQLNKASQYVSLLIRDSQPSDSATYLCAWNSGGSNYKLTFGKGTLLTVNP
Vbeta: NAGVTQTPKFRVLKTGQSMTLLCAQDMNHEYMYWYRQDPGMGLRLIHYSVGEGTTAKGEVPDGYNVSRLKKQNFLLGLESAAPSQTSVYFCASSYSQAWGQPQHFGDGTRLSIL
Take B4: the binding result in test [2] was “recognises”; in test [3] it was “no recognition”.
